In this assay the target is peptidase domain (PD) of human ACE2 (human) (UniProt Q9BYF1). Kind of assay: BLI. On the technique in general: In BLI a coated tip is dipped into the sample, and binding shifts an interference pattern.

One may read the Kd as the equilibrium constant for the complex coming apart. The low end stands for tighter binding, the high end for weaker binding.

The substance “RBD (319-541 a.a) of S protein from SARS-CoV-2 Omicron variant BA.2 (domain or fragment)” yielded a Kd of 16 nM.

For the origin of these results see paper PMC11374805.
